According to the supplement of paper PMC7877785:
± gives the uncertainty stated by the source.

Test: self-splicing fitness, log relative to wild type (ln ratio); higher = more splicing; Tetrahymena group I intron in knt gene, E. coli kanamycin selection, DiMSum; sequences stand for … in CUCUCU…GGAGGGAAAAGUUAUCAGGCAUGCACCUGGUAGCUAGUCUUUAAACCAAUAGAUUGCAUCGGUUUAAAAGGCAAGACCGUCAAAUUGCGGGAAAGGGGUCAACAGCCGUUCAGUACCAAGUCUCAGGGGAAACUUUGAGAUGGCCUUGCAAAGGGUAUGGUAAUAAGCUGACGGACAUGGUCCUAACCACGCAGCCAAGUCCUAAGUCAACAGAUCUUCUGUUGAUAUGGAUGCAGUUCACAGACUAAAUGUCGGUCGGGGAAGAUGUAUUCUUCUCAUAAGAUAUAGUCGGACCUCUCCUUAAUGGGAGCUAGCGGAUGAAGUGAUGCAACACUGGAGCCGCUGGGAACUAAUUUGUAUGCGAAAGUAUAUUGAUUAGUUUUGGAGUACUCGUGGUCG
Outline: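 Library with all eight P1ex-region intron nucleotides randomised, intron inside the knt kanamycin-resistance gene on pET-22b(+), in E. coli BL21(DE3). Cells grew overnight at 37°C or 30°C on LB agar with or without 25 μg/mL kanamycin (plus 100 μg/mL carbenicillin, 50 μM IPTG, 0.2% rhamnose), in six replicate transformations. Pooled colonies were amplicon-sequenced on Illumina HiSeq 2500. DiMSum fitness is the error-weighted combination of wild-type-normalised replicate fold changes, kanamycin versus none.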

Sequence	self-splicing fitness (ln) (37 °C)	self-splicing fitness (ln) (30 °C)
AGGGAGCAAUAUUACGUCUG	-1.73 ± 0.36	
UGACAGCAAUAUUACGUCAG	-1.75 ± 0.11	-2.12 ± 0.096
ACGGAGCAAUAUUACGCUAG	-2.16 ± 0.34	-2.63 ± 0.25
CGUUAGCAAUAUUACGCGUA	-0.996 ± 0.25	
UGCUAGCAAUAUUACGUGUA	-1.26 ± 0.1	-1.74 ± 0.1
UCCCAGCAAUAUUACGCAUA	-1.27 ± 0.15	-1.47 ± 0.16
UUGAAGCAAUAUUACGAUCC	-1.38 ± 0.38	
GAACAGCAAUAUUACGGACC	0.0387 ± 0.14	-0.915 ± 0.12
UGUCAGCAAUAUUACGAAAA	-0.75 ± 0.096	-1.06 ± 0.095
AGCAAGCAAUAUUACGCCGG	-1.81 ± 0.24	-3.71 ± 0.37
AGUUAGCAAUAUUACGUUCG	-0.903 ± 0.1	-1.26 ± 0.082
AACAAGCAAUAUUACGGUUU	-1.08 ± 0.086	-2.73 ± 0.1
UUGUAGCAAUAUUACGCCGC	-2.68 ± 0.4	
UGUCAGCAAUAUUACGUCCU	-0.325 ± 0.073	-0.0922 ± 0.06
UACUAGCAAUAUUACGGAUU	-1.56 ± 0.13	-2.82 ± 0.12
AAUCAGCAAUAUUACGUGAG	0.612 ± 0.077	-0.184 ± 0.047
AUAAAGCAAUAUUACGUGCA	0.348 ± 0.093	-0.0876 ± 0.067
CGAGAGCAAUAUUACGGUGG	-2.24 ± 0.34	-1.72 ± 0.34
GUCGAGCAAUAUUACGACUG	-0.232 ± 0.18	-3.17 ± 0.45
GCCAAGCAAUAUUACGGGGG	-2.35 ± 0.14	-4.11 ± 0.19

Sequence	self-splicing fitness (ln) (37 °C)	self-splicing fitness (ln) (30 °C)
CGAAAGCAAUAUUACGUGUC	-2.71 ± 0.22	-3.94 ± 0.34
GCUAAGCAAUAUUACGGUCC	-0.541 ± 0.3	-1.4 ± 0.22
CAGAAGCAAUAUUACGUGCU	-1.23 ± 0.14	-2.7 ± 0.17
CCCAAGCAAUAUUACGUAUA	-3.24 ± 0.23	-2.91 ± 0.23
AUUGAGCAAUAUUACGAGCC	-2.48 ± 0.3	-3.44 ± 0.26
CAGUAGCAAUAUUACGUAGC	-3.18 ± 0.17	-3.32 ± 0.12
CGGGAGCAAUAUUACGUUCA	-2.53 ± 0.26	-3.69 ± 0.25
GGAUAGCAAUAUUACGUGUA	-2.18 ± 0.12	-2.33 ± 0.13
CUAAAGCAAUAUUACGGUGU	-3.05 ± 0.21	-4.65 ± 0.25
CCGUAGCAAUAUUACGACAG	-0.234 ± 0.13	-0.678 ± 0.11
GGAGAGCAAUAUUACGGUCA	-2.11 ± 0.36	-1.14 ± 0.2
CUCCAGCAAUAUUACGUACU	-3.21 ± 0.28	-3.3 ± 0.29
GGUGAGCAAUAUUACGAGAC	-2.01 ± 0.46	-2.82 ± 0.33
AGAGAGCAAUAUUACGUCUA	-0.494 ± 0.26	-2.48 ± 0.35
CAGAAGCAAUAUUACGUACG	0.665 ± 0.14	-0.111 ± 0.089
UCUUAGCAAUAUUACGUCAU		-1.86 ± 0.32
ACUAAGCAAUAUUACGAAUU	-0.972 ± 0.089	-2.52 ± 0.096
ACUUAGCAAUAUUACGUGAC	-2.54 ± 0.29	-2.05 ± 0.21
AACCAGCAAUAUUACGUUAU	-0.941 ± 0.058	-2.18 ± 0.055
